# In patent publication EP4471049A1 (Zealand Pharma A/S, priority 2023, dated 2024):
# *1 amine or outer side, *2 acyl side, *3 side chain or, on linkers, in order; H or OH if unused. Where a SMILES comes first, the peptide text is derived from it. Bridges are numbered along the chain shown (N, C = ends). Where no end group is shown, it is not given here. [ ]: non-standard residue; d: D form. 4‑Aminomethyl‑phenylacetyl = 4-aminomethyl-phenylacetyl unit, its amine closes the lactam, O=C(Cc1ccc(CN[*:1])cc1)[*:2]; 2Nal = N[C@@H](Cc1ccc2ccccc2c1)C(=O)O; AEF = NCCOc1ccc(C[C@H](N)C(=O)O)cc1; 3Pal = N[C@@H](Cc1cccnc1)C(=O)O; αMeL = CC(C)C[C@](C)(N)C(=O)O; CH2COCH2 = O=C(C[*:1])C[*:2]; 3Amb = NCc1cccc(C(=O)O)c1; NMeS = CN[C@@H](CO)C(=O)O; Dab = NCC[C@H](N)C(=O)O
# T1: human IL-23R endogenously expressed on DB cells (human, UniProt Q5VWK5 24-629)
# T1 sequence (looked up): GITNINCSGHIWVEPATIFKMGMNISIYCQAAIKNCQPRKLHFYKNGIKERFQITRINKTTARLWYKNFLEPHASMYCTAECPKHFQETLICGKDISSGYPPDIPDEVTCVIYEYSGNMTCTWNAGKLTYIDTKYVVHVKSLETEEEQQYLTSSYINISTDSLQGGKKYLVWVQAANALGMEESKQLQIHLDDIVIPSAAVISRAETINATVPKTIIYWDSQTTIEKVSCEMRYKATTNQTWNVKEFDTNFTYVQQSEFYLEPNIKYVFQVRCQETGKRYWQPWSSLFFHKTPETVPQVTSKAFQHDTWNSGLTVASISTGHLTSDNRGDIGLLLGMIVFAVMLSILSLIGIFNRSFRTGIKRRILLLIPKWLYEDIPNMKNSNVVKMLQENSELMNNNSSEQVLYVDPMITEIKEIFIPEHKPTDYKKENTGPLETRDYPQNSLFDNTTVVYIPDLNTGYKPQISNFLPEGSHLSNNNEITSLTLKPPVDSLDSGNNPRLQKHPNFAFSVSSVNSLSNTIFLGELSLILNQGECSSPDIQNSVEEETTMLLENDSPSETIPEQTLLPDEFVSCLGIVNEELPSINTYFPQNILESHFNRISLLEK
# T2: Nluc-IL23R fusion protein (human, UniProt Q5VWK5 22-629)
# T2 construct: range 22-629; expressed with a secretion signal in HEK293 cells; used as crude membrane preparation; also called hIL-23R; human IL-23R; not shown: Nanoluc protein from the expression plasmid N1371 (Promega), N-terminal of IL-23R
# T2 sequence (looked up): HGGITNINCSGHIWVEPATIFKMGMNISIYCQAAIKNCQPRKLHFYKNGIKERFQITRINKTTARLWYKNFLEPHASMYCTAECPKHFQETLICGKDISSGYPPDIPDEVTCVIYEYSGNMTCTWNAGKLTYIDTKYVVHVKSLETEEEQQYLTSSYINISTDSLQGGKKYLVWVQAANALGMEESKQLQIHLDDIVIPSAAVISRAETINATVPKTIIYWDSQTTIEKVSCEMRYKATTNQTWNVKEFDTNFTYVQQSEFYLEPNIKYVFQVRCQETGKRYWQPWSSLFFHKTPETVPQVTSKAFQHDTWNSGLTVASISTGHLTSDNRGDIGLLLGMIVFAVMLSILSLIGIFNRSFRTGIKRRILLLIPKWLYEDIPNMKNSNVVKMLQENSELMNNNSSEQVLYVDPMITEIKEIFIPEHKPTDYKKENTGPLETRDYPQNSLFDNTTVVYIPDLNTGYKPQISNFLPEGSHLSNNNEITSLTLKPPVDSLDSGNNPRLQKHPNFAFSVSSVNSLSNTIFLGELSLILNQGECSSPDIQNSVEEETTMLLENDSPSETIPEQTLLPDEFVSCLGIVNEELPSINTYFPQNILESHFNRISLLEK
# Columns and labels:
# [1] = Peptide stability in simulated gastric fluid (SGF); assay type: in vitro ADME; settings: 37 °C, pH 1.2, porcine pepsin 3.2 g/L, 10 µM
# Procedure: SGF was prepared by dissolving sodium chloride (0.2 g) in 50 mL of water. A volume of 0.7 mL of 10 M HCl was added to adjust the pH of the solution to 1.2 and the volume made up to 100 mL with water. […] SIF was prepared by dissolving monobasic potassium phosphate (0.68 g) in 50 mL of water and adjusting the pH to 6.8 with 1 M NaOH. The volume was subsequently made up to 100 mL with water. 200 mg porcine pancreatin (P1625, Sigma Aldrich) was gently dissolved into 20 mL preheated (37 °C) solution (10 g/L) immediately prior to the incubation.
# The incubation was performed at 37 °C with gentle shaking. […] After the last timepoint, the sampling plate was mixed for 10 min on a shaking table and centrifuged 10 min at 2200 g. 70 µL resulting supernatant was diluted with 150 µL water, mixed and centrifugated before analysis by liquid chromatography high resolution mass spectrometry. […] Percent remaining at each timepoint was calculated relative to timepoint zero based on absolute peak areas.
# Compounds with a SGF stability (after 4 h) above 70% are considered highly SGF stable. […] Table 3-4: SGF data
# [2] = target: T1, human IL-23R endogenously expressed on …; test: cell-based or functional assay
# [3] = target: T2, Nluc-IL23R fusion protein; test: BRET competition vs TAMRA-labelled peptide, Nluc-IL23R membranes
SGF (% remaining 1 h) [1],SGF (% remaining 4 h) [1],hIL-23 (pSTAT3) antagonist % inhibition [2],hIL-23 (pSTAT3) antagonist IC50 [2],% displacement (hIL-23R binding) [3],IC50 [3],Molecule
1%,0%,,,,,"CC(C)C[C@@H]1NC(=O)[C@H](Cc2c[nH]c3ccccc23)NC(=O)[C@H](Cc2c[nH]c3ccccc23)NC(=O)[C@@H]2CSCC(=O)CSC[C@H](NC(=O)[C@H](CO)NC(=O)[C@@H](NC(=O)[C@@H](N)CC(=O)O)CCC(=O)NCCCC[C@@H](C(=O)N[C@@H](CCCNC(=N)N)C(N)=O)NC1=O)C(=O)N[C@@H](Cc1c[nH]c3ccccc13)C(=O)N[C@@H](CCC(N)=O)C(=O)N2 [Ref 4, H-DE(1c)SC(2a)WQC(2a)WWLK(1c)R-[NH2], reference compound] (HELM PEPTIDE1{D.E.S.C.W.Q.C.W.W.L.K.R.[am]}|CHEM1{[O=C(C[*:1])C[*:2]]}$PEPTIDE1,PEPTIDE1,2:R3-11:R3|PEPTIDE1,CHEM1,4:R3-1:R1|PEPTIDE1,CHEM1,7:R3-1:R2$$$V2.0)"
0%,0%,,,,,"CC(=O)N[C@@H](CC(=O)O)C(=O)N[C@H]1CCC(=O)NCCCC[C@@H](C(=O)N[C@@H](CCCNC(=N)N)C(N)=O)NC(=O)[C@H](CC(C)C)NC(=O)[C@H](Cc2ccc3ccccc3c2)NC(=O)[C@H](Cc2c[nH]c3ccccc23)NC(=O)[C@@H]2CSCC(=O)CSC[C@H](NC(=O)[C@H](CO)NC1=O)C(=O)N[C@@H](Cc1c[nH]c3ccccc13)C(=O)N[C@@H](CCC(N)=O)C(=O)N2 [Ref 17, [Ac]-DE(1c)SC(2a)WQC(2a)W[2-Nal]LK(1c)R-[NH2], reference compound]"
2%,1%,,,,,"CC(C)C[C@@H]1NC(=O)[C@H](Cc2ccc3ccccc3c2)NC(=O)[C@H](Cc2c[nH]c3ccccc23)NC(=O)[C@@H]2CSCC(=O)CSC[C@H](NC(=O)[C@H](CO)NC(=O)c3cccc(c3)CNC(=O)CC[C@@H](C(=O)N[C@@H](CCCNC(=N)N)C(N)=O)NC1=O)C(=O)N[C@@H](Cc1c[nH]c3ccccc13)C(=O)N[C@@H](CCC(N)=O)C(=O)N2 [Ref 37, [(3-Aminomethyl)benzoyl](1c)*SC(2a)WQC(2a)W[2-Nal]LE(1c)R-[NH2], reference compound] ([3Amb]SCWQCW[2Nal]LER-NH2; linker 3-6 via CH2COCH2; lactam N-10)"
,,102%,63 pM,95%,,"[4‑Aminomethyl‑phenylacetyl]FEWQ[Dab][AEF][2Nal][αMeL]E[Dab][3Pal]-NHMe (lactam N-10, 3-6; SMILES CNC(=O)[C@H](Cc1cccnc1)NC(=O)[C@H](CCN)NC(=O)[C@@H]1CCC(=O)NCc2ccc(cc2)CC(=O)N[C@@H](Cc2ccccc2)C(=O)N[C@H]2CCC(=O)NCC[C@H](NC(=O)[C@H](CCC(N)=O)NC(=O)[C@H](Cc3c[nH]c4ccccc34)NC2=O)C(=O)N[C@@H](Cc2ccc(OCCN)cc2)C(=O)N[C@@H](Cc2ccc3ccccc3c2)C(=O)N[C@@](C)(CC(C)C)C(=O)N1) [Compound 21]"
,,100%,31 pM,97%,,Ac-KTCWQC[AEF][2Nal][αMeL]E[Dab][3Pal]-NH2 (lactam 1-10; bridge 3-6; not fully specified (bridges); printed as [Ac]-K(1c)TC(2a)WQC(2a)[Y(2-aminoethoxy)][2-Nal][2-Me-Leu]E(1c)[Dab][3-(3-Pyridyl)-Ala]-[NH2]) [Ref 155]
,,,,96%,,[4‑Aminomethyl‑phenylacetyl][NMeS]EWQ[Dab][AEF][2Nal][αMeL]E[Dab][3Pal]-NHMe (lactam (positions not given here); lactam 3-6; not fully specified (bridges)) [Compound 18]
,,101%,54 pM,94%,,[4‑Aminomethyl‑phenylacetyl]SCWQC[AEF][2Nal][αMeL]E[Dab][3Pal]-NH2 (lactam N-10; bridge 3-6; not fully specified (bridges); printed as [4-Aminomethyl-phenylacetyl](1c)*SC(2a)WQC(2a)[Y(2-aminoethoxy)][2-Nal][2-Me-Leu]E(1c)[Dab][3-(3-Pyridyl)-Ala]-[NH2]) [Ref 120]
,,101%,3.4 nM,96%,35 pM,"[4‑Aminomethyl‑phenylacetyl]SEWA[Dab][AEF][2Nal][αMeL]E[Dab][3Pal]-NHMe (lactam N-10, 3-6; SMILES CNC(=O)[C@H](Cc1cccnc1)NC(=O)[C@H](CCN)NC(=O)[C@@H]1CCC(=O)NCc2ccc(cc2)CC(=O)N[C@@H](CO)C(=O)N[C@H]2CCC(=O)NCC[C@H](NC(=O)[C@H](C)NC(=O)[C@H](Cc3c[nH]c4ccccc34)NC2=O)C(=O)N[C@@H](Cc2ccc(OCCN)cc2)C(=O)N[C@@H](Cc2ccc3ccccc3c2)C(=O)N[C@@](C)(CC(C)C)C(=O)N1) [Compound 22]"
,,100%,0.13 nM,100%,,[3Amb]SCWQC[AEF][2Nal][αMeL]ER[3Pal]-NH2 (lactam N-10; bridge 3-6; not fully specified (bridges); printed as [(3-Aminomethyl)benzoyl](1c)*SC(2a)WQC(2a)[Y(2-aminoethoxy)][2-Nal][2-Me-Leu]E(1c)R[3-(3-Pyridyl)-Ala]-[NH2]) [Ref 78]
,,99%,5.2 nM,97%,120 pM,"[4‑Aminomethyl‑phenylacetyl]SEWF[Dab][AEF][2Nal][αMeL]E[Dab][3Pal]-NHMe (lactam N-10, 3-6; SMILES CNC(=O)[C@H](Cc1cccnc1)NC(=O)[C@H](CCN)NC(=O)[C@@H]1CCC(=O)NCc2ccc(cc2)CC(=O)N[C@@H](CO)C(=O)N[C@H]2CCC(=O)NCC[C@H](NC(=O)[C@H](Cc3ccccc3)NC(=O)[C@H](Cc3c[nH]c4ccccc34)NC2=O)C(=O)N[C@@H](Cc2ccc(OCCN)cc2)C(=O)N[C@@H](Cc2ccc3ccccc3c2)C(=O)N[C@@](C)(CC(C)C)C(=O)N1) [Compound 23]"
,,100%,3.5 nM,104%,,[4‑Aminomethyl‑phenylacetyl]SEWQ[Dab][AEF][2Nal][αMeL]E[Dab]H[3Pal]-NH2 (lactam (positions not given here); lactam 3-6; not fully specified (bridges)) [Compound 12]
,,97%,11 nM,103%,,[4‑Aminomethyl‑phenylacetyl]SCWQC[AEF][2Nal][αMeL]E[Dab]-NH2 (lactam N-10; bridge 3-6; not fully specified (bridges); printed as [4-Aminomethyl-phenylacetyl](1c)*SC(2a)WQC(2a)[Y(2-aminoethoxy)][2-Nal][2-Me-Leu]E(1c)[Dab]-[NH2]) [Ref 82]
